Reference: EP4628097A1 (Innovent Biologics (Suzhou) Co., Ltd., dated 2025)

Tests used:
human Ang2 [1] = biological target: T1, human Ang2 (human, UniProt O15123 19-496, limits assumed); test: ELISA, relative binding activity; IEX04-012 about 40 mg/mL in F8, 40 C, 1 week
T1 construct: Bought proteins; also called hAng2-biotin; Ang2-Bio (Sino)
T1 sequence (looked up): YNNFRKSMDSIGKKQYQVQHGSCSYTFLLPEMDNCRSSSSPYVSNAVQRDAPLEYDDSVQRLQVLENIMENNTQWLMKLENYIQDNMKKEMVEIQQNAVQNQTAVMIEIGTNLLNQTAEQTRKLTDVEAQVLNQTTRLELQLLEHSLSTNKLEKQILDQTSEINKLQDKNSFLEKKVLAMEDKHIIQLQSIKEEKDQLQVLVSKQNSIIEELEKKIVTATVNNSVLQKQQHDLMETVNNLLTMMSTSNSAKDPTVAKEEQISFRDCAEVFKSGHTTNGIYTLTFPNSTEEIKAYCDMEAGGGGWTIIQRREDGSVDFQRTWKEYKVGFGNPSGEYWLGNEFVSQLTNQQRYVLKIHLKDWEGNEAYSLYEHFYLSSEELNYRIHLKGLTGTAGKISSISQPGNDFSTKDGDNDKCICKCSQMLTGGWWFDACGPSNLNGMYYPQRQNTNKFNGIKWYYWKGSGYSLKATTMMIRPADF

human VEGF165 [2] = biological target: T2, human VEGF165 (human, UniProt P15692-4 27-191); test: as above
T2 construct: all are put under this molecule; also called VEGF A; VEGFA

human Ang2 [3] = biological target: T1, human Ang2; test: ELISA, relative binding activity; IEX04-012 about 40 mg/mL in F9, 40 C, 2 weeks
human VEGF165 [4] = biological target: T2, human VEGF165; test: as above
human Ang2 [5] = biological target: T1, human Ang2; test: ELISA, relative binding activity; 120 mg/mL formula, 2-8 C, 12M
human VEGF165 [6] = biological target: T2, human VEGF165; test: as above
human Ang2 [7] = biological target: T1, human Ang2; test: ELISA, relative binding activity; final formula 40 mg/mL, 40 C, 2W
human VEGF165 [8] = biological target: T2, human VEGF165; test: as above
human Ang2 [9] = biological target: T1, human Ang2; test: ELISA, relative binding activity; IEX04-012 about 40 mg/mL in F7, 40 C, 1 week
human VEGF165 [10] = biological target: T2, human VEGF165; test: as above
human Ang2 [11] = biological target: T1, human Ang2; test: ELISA, relative binding activity; IEX04-012 about 40 mg/mL in F9, 40 C, 1 week
human VEGF165 [12] = biological target: T2, human VEGF165; test: as above
human Ang2 [13] = biological target: T1, human Ang2; test: ELISA, relative binding activity; IEX04-012 about 40 mg/mL in F1, 40 C, 2 weeks
human VEGF165 [14] = biological target: T2, human VEGF165; test: as above
human Ang2 [15] = biological target: T1, human Ang2; test: ELISA, relative binding activity; final formula 40 mg/mL, 2-8 C, 6M
human VEGF165 [16] = biological target: T2, human VEGF165; test: as above
human Ang2 [17] = biological target: T1, human Ang2; test: ELISA, relative binding activity; IEX04-012 about 40 mg/mL in F9, 40 C, 0 weeks
human VEGF165 [18] = biological target: T2, human VEGF165; test: as above
human Ang2 [19] = biological target: T1, human Ang2; test: ELISA, relative binding activity; IEX04-012 about 40 mg/mL in F2, 40 C, 1 week
human VEGF165 [20] = biological target: T2, human VEGF165; test: as above
human Ang2 [21] = biological target: T1, human Ang2; test: ELISA, relative binding activity; IEX04-012 about 40 mg/mL in F10, 40 C, 1 week
human VEGF165 [22] = biological target: T2, human VEGF165; test: as above
human Ang2 [23] = biological target: T1, human Ang2; test: ELISA, relative binding activity; IEX04-012 about 40 mg/mL in F5, 40 C, 0 weeks
human Ang2 [24] = biological target: T1, human Ang2; test: ELISA, relative binding activity; 120 mg/mL formula, 40 C, 2W
human Ang2 [25] = biological target: T1, human Ang2; test: ELISA, relative binding activity; 120 mg/mL formula, 25 C, 3M
human VEGF165 [26] = biological target: T2, human VEGF165; test: as above

T2 sequence (P15692 other isoform, or with tags, fused parts or gaps limits assumed): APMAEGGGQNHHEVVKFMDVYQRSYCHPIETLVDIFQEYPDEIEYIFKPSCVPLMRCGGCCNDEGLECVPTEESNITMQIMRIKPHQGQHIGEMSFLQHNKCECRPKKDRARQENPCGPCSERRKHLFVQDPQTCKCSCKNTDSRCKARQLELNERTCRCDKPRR

- Relative binding Activity to Ang2 (ELISA, %) (human Ang2 [1]): 92%
- Relative binding Activity to VEGF (ELISA, %) (human VEGF165 [2]): 101%
- Relative binding Activity to Ang2 (ELISA, %) (human Ang2 [3]): 90%
- Relative binding Activity to VEGF (ELISA, %) (human VEGF165 [4]): 99%
- Relative binding Activity to Ang2 (ELISA, %) (human Ang2 [5]): 104%
- Relative binding Activity to VEGF A (ELISA, %) (human VEGF165 [6]): 104%
- Relative binding Activity to Ang2 (ELISA, %) (human Ang2 [7]): 86%
- Relative binding Activity to VEGF A (ELISA, %) (human VEGF165 [8]): 91%
- Relative binding Activity to Ang2 (ELISA, %) (human Ang2 [9]): 90%
- Relative binding Activity to VEGF (ELISA, %) (human VEGF165 [10]): 102%
- Relative binding Activity to Ang2 (ELISA, %) (human Ang2 [11]): 96%
- Relative binding Activity to VEGF (ELISA, %) (human VEGF165 [12]): 97%
- Relative binding Activity to Ang2 (ELISA, %) (human Ang2 [13]): 100%
- Relative binding Activity to VEGF (ELISA, %) (human VEGF165 [14]): 101%
- Relative binding Activity to Ang2 (ELISA, %) (human Ang2 [15]): 100%
- Relative binding Activity to VEGF A (ELISA, %) (human VEGF165 [16]): 99%
- Relative binding Activity to Ang2 (ELISA, %) (human Ang2 [17]): 100%
- Relative binding Activity to VEGF (ELISA, %) (human VEGF165 [18]): 100%
- Relative binding Activity to Ang2 (ELISA, %) (human Ang2 [19]): 99%
- Relative binding Activity to VEGF (ELISA, %) (human VEGF165 [20]): 98%
- Relative binding Activity to Ang2 (ELISA, %) (human Ang2 [21]): 98%
- Relative binding Activity to VEGF (ELISA, %) (human VEGF165 [22]): 99%
- Relative binding Activity to Ang2 (ELISA, %) (human Ang2 [23]): 100%
- Relative binding Activity to Ang2 (ELISA, %) (human Ang2 [24]): 81%
- Relative binding Activity to Ang2 (ELISA, %) (human Ang2 [25]): 75%
- Relative binding Activity to VEGF A (ELISA, %) (human VEGF165 [26]): 106%
B1: IEX04-012 (bispecific antibody)
chain: DIQLTQSPSSLSASVGDRVTITCSASQDISNYLNWYQQKPGKAPKVLIYFTSSLHSGVPSRFSGSGSGTDFTLTISSLQPEDFATYYCQQYSTVPWTFGCGTKVEIKGGGGSGGGGSGGGGSGGGGSEVQLVESGGGLVQPGGSLRLSCAASGYDFTHYGMNWVRQAPGKCLEWVGWINTYTGEPTYAADFKRRFTFSLDTSKSTAYLQMNSLRAEDTAVYYCAKYPYYYGTSHWYFDVWGQGTLVTVSSGGGGSGGGGSGGGGSEVQLLESGGGLVQPGGSLRLSCAASGFALDYYAIGWFRQAPGKGLEGVSCISSGEGSTYYADSVKGRFTISRDNSKNTVYLQMNSLRAEDTAVYYCATDSRGDDVACEGLRRNEYDYWGQGTLVTVSS
